Patent US7273847B2, “Peptides with antioxidant and antimicrobial properties” (priority 2000, dated 2007)

How the values were obtained:
GBS = experiment: Radial diffusion growth inhibition in agar; format: cell-based; settings: radial diffusion (not shown)
Procedure: (§1) A radial diffusion method was therefore used to examine the effect of the collectins and their individual structural domains on the growth of E. coli that were immobilized in agar (FIGS. 8,9). Wells were bored into plates containing agar impregnated with 2×10^6 E. coli/ml or GBS. Proteins to be tested were introduced into the wells and the plates were incubated overnight at 37° C.

E. coli K12 = experiment: Radial diffusion growth inhibition in agar; format: cell-based; settings: radial diffusion, overnight 37° C.
Procedure: as §1

LDL = experiment: Western (immunoblot) analysis of protein carbonyl derivatives formed during copper mediated LDL oxidation; format: biochemical, human; settings: SP-A 10 μg/ml, SP-D 1 μg/ml; alkylated SP-A 50 μg/ml, alkylated SP-D 10 μg/ml
Procedure: Proteins were analyzed for carbonyl modification of amino acid side groups that occur during lipid oxidation, as described in Levine et al., Methods Enzymol. 186, 464-478 (1990). Briefly, proteins that were included in reactions mixtures with LDL and 10 μM copper were derivatized to 2,4-dinitrophenylhydrazones (DNP-hydrazones) by reaction with 2,4-dinitrophenylhydrazine (DNPH), size fractionated by 8-16% SDS-PAGE under reducing conditions and electrophorectically transferred to nitrocellulose membranes (Oxyblot, Intergen). The membrane was sequentially incubated with a rabbit anti-DNP IgG and a horseradish peroxidase-conjugated goat anti-rabbit IgG. Blots were developed by HRP-dependent oxidation of a chemiluminescent substrate, and visualized using autoradiography.
To determine if the surfactant proteins act as sinks for reactive lipid intermediates, covalent modification of SP-A and SP-D during LDL oxidation was assessed using a western analysis technique that detects carbonyl adducts (Levine et al., Methods Enzymol. 186: 464-78 (1990)). As depicted by FIG. 4, oxidative modification of proteins that occurred during copper induced LDL oxidation were determined by Western analysis using an antibody to DNP-derivatized carbonyl moieties. Reaction mixtures contained LDL only, LDL+Cu^2+, LDL+Cu^2++albumin+10 μg/ml SP-A, LDL+Cu^2++albumin+1 μg/ml SP-D, LDL+Cu^2++albumin, LDL+Cu^2++albumin+50 μg/ml iodoacetamide treated SP-A, LDL+Cu^2++albumin+10 μg/ml iodoacetamide treated SP-D, 50 μg/ml albumin+50 μg/ml iodoacetamide treated SP-A, albumin+10 μg/ml iodoacetamide treated SP-D.

RAW 264.7 macrophages = experiment: Protection from t-BOOH induced cell death (Trypan Blue exclusion); format: cell-based, murine; settings: 40 μM t-BOOH, 24 hrs; for Half maximal concentration for protection from t-BOOH-induced death: Trypan Blue
Procedure: A murine macrophage cell line (RAW 264.7) was adhered to 24-well plates (2×10^4 cells/well) in Ham's F12 media containing 10% FBS overnight at 37° C. in a 10% CO2 atmosphere. After washing, the cells were exposed to 40 μM tert-butyl hydroperoxide (t-BOOH) in serum free Ham's F12 for 24 hrs in the presence of various concentrations of the surfactant proteins. Viability was assessed for exclusion of the vital dye Trypan Blue.
Exposure of cultured mammalian cells to tert-butylhydroperoxide (t-BOOH) promotes a variety of toxic events including depletion of glutathione, mitochondrial dysfunction and peroxidation of membrane lipids, as described in Sestili et al., FEBS Lett. 457(1):139-143 (1999). To determine if SP-A and SP-D protect cells from oxidative stress, RAW 264.7 murine macrophages were exposed to 40 μM t-BOOH for 24 hrs in the presence of SP-A or SP-D at concentrations from 0.01 to 50 μg/ml. Cell death was assessed by staining cells with the vital dye Trypan Blue. As depicted by FIG. 5, RAW 264.7 macrophages were incubated with various concentrations of SP-A or SP-D and 40 μM t-BOOH. Cell viability was assessed by counting the percentage of cells that excluded the vital dye Trypan Blue. Data are mean±S.E.M., n=3 for collectins except 50 μg/ml point where n=2.

model surfactant lipids = experiment: AIBN-initiated lipid peroxidation of model surfactant lipids; format: biochemical; settings: 3 hours incubation, with or without low concentrations of copper; preliminary data
E. coli = experiment: Light scattering by growing bacteria in broth (O.D. 400 nm); settings: for Blocking of attenuation of light scattering by J5 LPS vesicles: 300 μg/ml J5 LPS vesicles, 100 μg/ml collectin
E. coli strain (E69) = experiment: Growth inhibition (radius of clearing) of E. coli clinical isolate with or without OmpA; format: cell-based; settings: for Growth inhibition of ΔOmpA bacteria with plasmid driven OmpA expression: OmpA replaced; for Growth inhibition of OmpA deficient (ΔOmpA) E. coli: judged by the radius of clearing around the well
Procedure: SP-A has been reported to bind to the outer membrane protein (OmpA) of Hemophilus influenza, a porin that facilitates the uptake of nutrients from the environment. The hypothesis that binding of collectins to OmpA mediates bacterial growth inhibition by SP-A and SP-D was tested. These experiments were performed using a genetically engineered clinical isolate of E. coli that was rendered OmpA deficient (ΔOmpA) by transposon mutagenesis.

Molecule | Growth of GBS (GBS) | Growth of E. coli K12 (E. coli K12) | LDL oxidation in carbonyl Western analysis (LDL) | Concentration at which protection reached a plateau (RAW 264.7 macrophages) | Half maximal concentration for protection from t-BOOH-induced death (RAW 264.7 macrophages) [µg/mL] | Inhibition of AIBN-initiated LPO (model surfactant lipids) | Blocking of attenuation of light scattering by J5 LPS vesicles (E. coli) | Growth inhibition of ΔOmpA bacteria with plasmid driven OmpA expression (E. coli strain (E69)) | Growth inhibition of ΔOmpA organism with empty vector control (E. coli strain (E69)) | Growth inhibition of OmpA deficient (ΔOmpA) E. coli (E. coli strain (E69)) | Growth of parental E. coli strain (E69) (E. coli strain (E69)) | Time dependent increase in light scattering (E. coli; 100 μg/ml)
SP-A: Native surfactant protein A isolated from the alveolar wash of silica-pretreated rats | not GBS | inhibited the growth | blocked LDL oxidation without the appearance of carbonyl-modified species | approximately 1 μg/ml | 0.52 | did not inhibit LPO, unless copper was added at low concentrations | completely | attenuated growth inhibition | inhibited to the same extent as the ΔOmpA organism | growth inhibition was increased | inhibited the growth | –
SP-D: Native surfactant protein D from rat alveolar wash; mouse SP-D was used interchangeably with rat SP-D (protein) AEMKSLSQRSVPNTCTLVMCSPTENGLPGRDGRDGREGPRGEKGDPGLPGPMGLSGLQGPTGPVGPKGENGSAGEPGPKGERGLSGPPGLPGIPGPAGKEGPSGKQGNIGPQGKPGPKGEAGPKGEVGAPGMQGSTGAKGSTGPKGERGAPGVQGAPGNAGAAGPAGPAGPQGAPGSRGPPGLKGDRGVPGDRGIKGESGLPDSAALRQQMEALKGKLQRLEVAFSHYQKAALFPDGRSVGDKIFRTADSEKPFEDAQEMCKQAGGQLASPRSATENAAIQQLITAHNKAAFLSMTDVGTEGKFTYPTGEPLVYSNWAPGEPNNNGGAENCVEIFTNGQWNDKACGEQRLVICEF | not GBS | inhibited the growth | blocked LDL oxidation without the appearance of carbonyl-modified species | approximately 1 μg/ml | 0.56 | did not inhibit LPO, unless copper was added at low concentrations | partially | attenuated growth inhibition | inhibited to the same extent as the ΔOmpA organism | growth inhibition was increased | inhibited the growth | inhibited
